Laboratory results as given in paper PMC8560915, “Nematode CDC-37 and DNJ-13 form complexes and can interact with HSP-90” (Scientific Reports, 2021).

B1: DNJ-13 (natural protein)
chain: not shown
notes: DNJ-13, cytosolic Hsp40-like J domain protein of C. elegans; cDNA in pET28b after the N-terminal His6 tag; called full-length in the results; also called full-length DNJ-13; DNJ-13 dimer; source: E. coli BL21-CodonPlus(DE3)RIL, purified (HisTrap FF, ResourceS ion exchange, Superdex 75 SEC)
B2: Labeled CDC-37 (*CDC-37) (natural protein, nematode, UniProt O02108 1-370, looked up)
chain: MPIDYSKWKDIEVSDDEDDTHPNIDTPSLFRWRHQARLERMAEKKMEQEKIDKEKGTTSKKMEELEKKLAAADVTDKSDIQKQIDEVKAQEEAWRKKEAELEEKERLEPWNVDTIGHEAFSTSRINKITEKKPQAPKTDEEDTHAMSTFFETHESLLEKMAVLKNGAKSTELFLAEHPHMASEYTANWLTIEALNAAIDFNEEKMKTMAEQCIIIQYLLELSKSLNAVATNTTVQKQFFKKFEAAEPVYMKHYQDEVKAFEDRLRTRAQTKRDAAMEEAEAEEKAERMKSAPGGIDPQEVFEQLPEEMRKCFEAHDIEALKGVAQKMDEEVFKYHFDRCIASGLWVPGKADDDDDDEEAAPAEEEPTTSS
modifications: ATTO 488 C5-maleimide at its cysteine residues
notes: CDC-37, kinase-specific Hsp90 cofactor of nematodes; same protein as m1, labeled at cysteines; The methods name ATTO 488 C5-maleimide, the results call the label AlexaFluor 488; also called fluorescently labeled CDC-37; AlexaFluor 488-labeled CDC-37

Experiments:
[1] = target: the molecule itself; assay: cross-linking; isotope labeled BS3-H12/D12 and DSSG-H6/D6; 16 µM DNJ-13 and 16 µM CDC-37; bands cut from SDS-PAGE, tryptic digest, nanoLC-ESI-MS/MS; crosslinks identified with xMASS and pLink2.0
Labeled CDC-37 (*CDC-37) = target: B2; assay: AUC; fluorescence AUC titration, 100 nM *CDC-37 with 0-10 µM DNJ-13; sedimentation coefficients against DNJ-13 concentration fitted with a Michaelis-Menten function; approximate KD; conditions: both partners purified
HSP-90 = target: T1, HSP-90 (nematode, UniProt Q18688 1-702); assay: AUC; sedimentation velocity with fluorescence detection; 300 nM *CDC-37 with or without 2 µM binding partners; 42,000 rpm, 20 °C; 40 mM HEPES/KOH pH 7.5, 20 mM KCl, 1 mM DTT, 5 mM MgCl2; with and without ATPγS for HSP-90; conditions: both partners purified
T1 construct: HSP-90 of nematodes, the chaperone for which CDC-37 acts as co-chaperone; the construct is not described

DNJ-13 = target: B1; assay: AUC; sedimentation velocity with UV/Vis absorbance, non-labeled proteins, 0.5 mg/ml protein; 10 µM DNJ-13 with substoichiometric, equal or excess CDC-37; 2DSA analysis in UltraScan III; conditions: both partners purified

Chain of DNJ-13 (Q20774 entry or part of it): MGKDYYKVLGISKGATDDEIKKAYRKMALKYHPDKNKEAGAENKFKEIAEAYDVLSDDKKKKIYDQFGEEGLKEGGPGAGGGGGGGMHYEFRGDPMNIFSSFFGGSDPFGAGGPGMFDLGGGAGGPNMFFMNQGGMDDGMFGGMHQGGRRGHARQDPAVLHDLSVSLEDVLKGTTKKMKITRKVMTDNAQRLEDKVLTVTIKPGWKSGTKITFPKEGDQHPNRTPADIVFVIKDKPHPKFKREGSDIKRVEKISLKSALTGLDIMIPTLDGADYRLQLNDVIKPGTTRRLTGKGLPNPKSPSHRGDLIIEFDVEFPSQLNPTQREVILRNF

**Q.** For B1, which “stoichiometry N” value [1] is on record?
**A.** 2

**Q.** And the Kd (Labeled CDC-37 (*CDC-37))?
**A.** ~3000 nM

**Q.** Does B2 bind (HSP-90)?
**A.** binds

B3: CDC-37 (natural protein, nematode, UniProt O02108 1-370, looked up)
chain: MPIDYSKWKDIEVSDDEDDTHPNIDTPSLFRWRHQARLERMAEKKMEQEKIDKEKGTTSKKMEELEKKLAAADVTDKSDIQKQIDEVKAQEEAWRKKEAELEEKERLEPWNVDTIGHEAFSTSRINKITEKKPQAPKTDEEDTHAMSTFFETHESLLEKMAVLKNGAKSTELFLAEHPHMASEYTANWLTIEALNAAIDFNEEKMKTMAEQCIIIQYLLELSKSLNAVATNTTVQKQFFKKFEAAEPVYMKHYQDEVKAFEDRLRTRAQTKRDAAMEEAEAEEKAERMKSAPGGIDPQEVFEQLPEEMRKCFEAHDIEALKGVAQKMDEEVFKYHFDRCIASGLWVPGKADDDDDDEEAAPAEEEPTTSS
notes: CDC-37, kinase-specific Hsp90 cofactor of nematodes; cDNA in pET28b after the N-terminal His6 tag; called full-length in the results; Cleavage of the His6 tag is not mentioned; also called full-length CDC-37; FL; source: E. coli BL21-CodonPlus(DE3)RIL, purified (HisTrap FF, ResourceS ion exchange, Superdex 75 SEC)
**Q.** With B3 as the binder, how does the “stoichiometry N” value (DNJ-13) read?
**A.** 1 CDC-37 per DNJ-13 dimer
